Reference: PMC2193258

What was measured:
[1] = biological target: glycocalicin (the soluble extracellular domain of platelet glycoprotein Ibα) (human) (UniProt P07359); test: cell adhesion assay, competition
[2] = biological target: Mac-1 (αMβ2, CD11b/CD18) on THP-1 monocytic cells (human (endogenous in THP-1)), P11215; test: cell adhesion assay, competition; conditions: remark: other sources report otherwise

Sequence of UniProt P07359 (P07359 17-531): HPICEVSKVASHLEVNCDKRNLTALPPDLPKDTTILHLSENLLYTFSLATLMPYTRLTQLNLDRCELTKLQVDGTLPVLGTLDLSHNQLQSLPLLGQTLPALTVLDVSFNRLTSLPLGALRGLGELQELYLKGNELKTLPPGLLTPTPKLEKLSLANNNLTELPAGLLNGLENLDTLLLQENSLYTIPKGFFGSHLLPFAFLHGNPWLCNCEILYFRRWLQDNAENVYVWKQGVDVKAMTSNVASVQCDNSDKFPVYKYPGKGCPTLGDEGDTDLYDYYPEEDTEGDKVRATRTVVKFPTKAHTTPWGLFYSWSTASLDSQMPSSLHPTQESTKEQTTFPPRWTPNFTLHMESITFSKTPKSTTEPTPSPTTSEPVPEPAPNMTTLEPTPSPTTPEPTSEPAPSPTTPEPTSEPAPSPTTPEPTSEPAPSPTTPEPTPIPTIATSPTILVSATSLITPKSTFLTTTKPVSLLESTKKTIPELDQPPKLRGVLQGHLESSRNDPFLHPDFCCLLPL

A percent inhibition of THP-1 adhesion to GP Ibα [1] of 83% was found for “39/34-kD dispase fragment of vWf encompassing the A1 domain (Leu480–Gly718) (domain or fragment)” in this work.

B1: human fibrinogen, P02671-2 20-644; P02675 31-491; P02679-2 27-437 (complex)
chain 1: ADSGEGDFLAEGGGVRGPRVVERHQSACKDSDWPFCSDEDWNYKCPSGCRMKGLIDEVNQDFTNRINKLKNSLFEYQKNNKDSHSLTTNIMEILRGDFSSANNRDNTYNRVSEDLRSRIEVLKRKVIEKVQHIQLLQKNVRAQLVDMKRLEVDIDIKIRSCRGSCSRALAREVDLKDYEDQQKQLEQVIAKDLLPSRDRQHLPLIKMKPVPDLVPGNFKSQLQKVPPEWKALTDMPQMRMELERPGGNEITRGGSTSYGTGSETESPRNPSSAGSWNSGSSGPGSTGNRNPGSSGTGGTATWKPGSSGPGSTGSWNSGSSGTGSTGNQNPGSPRPGSTGTWNPGSSERGSAGHWTSESSVSGSTGQWHSESGSFRPDSPGSGNARPNNPDWGTFEEVSGNVSPGTRREYHTEKLVTSKGDKELRTGKEKVTSGSTTTTRRSCSKTVTKTVIGPDGHKEVTKEVVTSEDGSDCPEAMDLGTLSGIGTLDGFRHRHPDEAAFFDTASTGKTFPGFFSPMLGEFVSETESRGSESGIFTNTKESSSHHPGIAEFPSRGKSSSYSKQFTSSTSYNRGDSTFESKSYKMADEAGSEADHEGTHSTKRGHAKSRPVRGIHTSPLGKPSLSP
chain 2: QGVNDNEEGFFSARGHRPLDKKREEAPSLRPAPPPISGGGYRARPAKAAATQKKVERKAPDAGGCLHADPDLGVLCPTGCQLQEALLQQERPIRNSVDELNNNVEAVSQTSSSSFQYMYLLKDLWQKRQKQVKDNENVVNEYSSELEKHQLYIDETVNSNIPTNLRVLRSILENLRSKIQKLESDVSAQMEYCRTPCTVSCNIPVVSGKECEEIIRKGGETSEMYLIQPDSSVKPYRVYCDMNTENGGWTVIQNRQDGSVDFGRKWDPYKQGFGNVATNTDGKNYCGLPGEYWLGNDKISQLTRMGPTELLIEMEDWKGDKVKAHYGGFTVQNEANKYQISVNKYRGTAGNALMDGASQLMGENRTMTIHNGMFFSTYDRDNDGWLTSDPRKQCSKEDGGGWWYNRCHAANPNGRYYWGGQYTWDMAKHGTDDGVVWMNWKGSWYSMRKMSMKIRPFFPQQ
chain 3: YVATRDNCCILDERFGSYCPTTCGIADFLSTYQTKVDKDLQSLEDILHQVENKTSEVKQLIKAIQLTYNPDESSKPNMIDAATLKSRKMLEEIMKYEASILTHDSSIRYLQEIYNSNNQKIVNLKEKVAQLEAQCQEPCKDTVQIHDITGKDCQDIANKGAKQSGLYFIKPLKANQQFLVYCEIDGSGNGWTVFQKRLDGSVDFKKNWIQYKEGFGHLSPTGTTEFWLGNEKIHLISTQSAIPYALRVELEDWNGRTSTADYAMFKVGPEADKYRLTYAYFAGGDAGDAFDGFDFGDDPSDKFFTSHNGMQFSTWDNDNDKFEGNCAEQDGSGWWMNKCHAGHLNGVYYQGGTYSKASTPNGYDNGIIWATWKTRWYSMKKTTMKIIPFNRLTIGEGQQHHLGGAKQAGDV
A percent inhibition of THP-1 adhesion to GP Ibα [2] of 99% was found for B1 in this work.
